Results taken from patent US20220056119A1 (Regeneron, published 2022).
Values belong to the binder of their own block, whether it stands above or below them.

Tests used:
[1] = biological target: T1, Activin A (human, UniProt P08476 311-426); assay: cell-based or functional assay
T1 sequence: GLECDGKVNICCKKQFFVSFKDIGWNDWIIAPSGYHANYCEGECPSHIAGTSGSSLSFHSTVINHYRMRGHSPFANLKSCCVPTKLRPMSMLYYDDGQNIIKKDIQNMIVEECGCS

[2] = biological target: T1, Activin A; assay: SPR, 5 nM Activin A + 15 nM binder over hActRIIA-hFc surface
Procedure: (§1) The binding signal (RU) was measured at 150 seconds after the start of the injection, and this signal was subtracted by the measured RU value for a negative control reference surface to determine the specific binding signal.

[3] = biological target: T1, Activin A; assay: SPR, 5 nM Activin A + 30 nM binder over hActRIIA-hFc surface
Procedure: as §1

[4] = biological target: T1, Activin A; assay: SPR, 5 nM Activin A + 60 nM binder over hActRIIA-hFc surface
Procedure: as §1

[5] = biological target: T1, Activin A; assay: SPR, 5 nM Activin A + 0.94 nM binder over hActRIIA-hFc surface
Procedure: as §1

[6] = biological target: T1, Activin A; assay: SPR, 5 nM Activin A + 1.88 nM binder over hActRIIA-hFc surface
Procedure: as §1

[7] = biological target: T1, Activin A; assay: SPR, 5 nM Activin A + 3.75 nM binder over hActRIIA-hFc surface
Procedure: as §1

[8] = biological target: T1, Activin A; assay: SPR, 5 nM Activin A + 7.50 nM binder over hActRIIA-hFc surface
Procedure: as §1

[9] = biological target: T1, Activin A; assay: SPR, 5 nM Activin A + 15 nM binder over Follistatin-288 surface
Procedure: as §1

[10] = biological target: T1, Activin A; assay: SPR, 5 nM Activin A + 30 nM binder over Follistatin-288 surface
Procedure: as §1

[11] = biological target: T1, Activin A; assay: SPR, 5 nM Activin A + 60 nM binder over Follistatin-288 surface
Procedure: as §1

[12] = biological target: T1, Activin A; assay: SPR, 5 nM Activin A + 7.5 nM binder over Follistatin-288 surface
Procedure: as §1

[13] = biological target: T1, Activin A; assay: SPR, 5 nM Activin A + 0.94 nM binder over Follistatin-288 surface
Procedure: as §1

[14] = biological target: T1, Activin A; assay: SPR, 5 nM Activin A + 1.88 nM binder over Follistatin-288 surface
Procedure: as §1

[15] = biological target: T1, Activin A; assay: SPR, 5 nM Activin A + 3.75 nM binder over Follistatin-288 surface
Procedure: as §1

[16] = biological target: T1, Activin A; assay: SPR, 5 nM Activin A + 0 nM binder (no inhibitor) over Follistatin-288 surface
Procedure: as §1

[17] = biological target: T1, Activin A; assay: SPR, 5 nM Activin A + 0.00 nM binder (no inhibitor) over hActRIIA-hFc surface
Procedure: as §1

- IC50, inhibition of 100 pM Activin A in A204/CAGAx12-Luc luciferase bioassay [1]: 5.8e-11 M
B1: H4H10452P2 (antibody, human IgG4, V domains shown)
VH: QVQLQESGPGLVKPSETLSLTCTVSGGSFSSHFWNWIRQSPGRGLEWIGYIYYSGGTNYNPSFKSRVTMSVDTSKNQFSLKLSSVTAADTAVFYCARARSGITFGGVLVPGSFDIWGQGTMVTVSS
VL: not shown

- IC50, inhibition of 100 pM Activin A in A204/CAGAx12-Luc luciferase bioassay [1]: 7.6e-10 M
B2: H4H10424P (antibody, human IgG4, V domains shown)
VH: QVQLVESGGGVVQPGRSLRLSCAASGFTFSSYGMHWVRQAPGKGLEWVAVIWYDGSNKYNADSVKGRFTISRDNSKNTVYLQMNSLRAEDTAVYYCARARNYDILTGYYNLGMDVWGQGTTVTVSS
VL: DIQMTQSPSSLSASVGDRVTITCRASQGIRNDLGWYQQKPGKAPKRLIYAASSLQSGVPSRFSGSGSGTEFTLTISSLQPEDFATYYCLQHNSYPYTFGQGTKLEIK

- IC50, inhibition of 100 pM Activin A in A204/CAGAx12-Luc luciferase bioassay [1]: 2.6e-10 M
B3: H4H10438P2 (antibody, human IgG4, V domains shown)
VH: EVQLVESGGGLVQPGRSLRLSCAASGFTFDDNAMHWVRQPPGKGLEWVSGISWNSGSIGYADSVKGRFTISRDNAKNSLYLQMNSLRAEDTALYYCAKDINDILTGYPLFDYWGQGTLVTVSS
VL: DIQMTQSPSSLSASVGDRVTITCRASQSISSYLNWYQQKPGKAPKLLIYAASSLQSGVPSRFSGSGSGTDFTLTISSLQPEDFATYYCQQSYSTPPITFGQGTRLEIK

- IC50, inhibition of 100 pM Activin A in A204/CAGAx12-Luc luciferase bioassay [1]: 3.5e-09 M
B4: H2aM10965N (antibody, mouse IgG2a, V domains shown)
VH: RVQLVQSGSEVKKPGASVKVSCRASGYIFTSYDINWVRQATGQGLEWMGWMNPNNGNTAYTQKFQGRVTMTRNTSISTAYMELSSLRSEDTAVYYCARKGLLWFGKLLGYGMDVWGQGTTVTVSS
VL: not shown

- IC50, inhibition of 100 pM Activin A in A204/CAGAx12-Luc luciferase bioassay [1]: 5.3e-11 M
B5: H4H10445P2 (antibody, human IgG4, V domains shown)
VH: QVQLQESGPGLVKPSETLSLICSVSGGSFSSHFWSWIRQPPGKGLEWIGYVLYSGGTNYNPSLKSRVTISVDTSKNQFFLKLSSVTAADTADYYCARAISGITFGGIIVPGSFDIWGQGTMVTVSS
VL: not shown

- IC50, inhibition of 100 pM Activin A in A204/CAGAx12-Luc luciferase bioassay [1]: 2e-10 M
- % bound RU w/ no inhibitor [2]: 112%
- % bound RU w/ no inhibitor [3]: 114%
- % bound RU w/ no inhibitor [4]: 116%
- % bound RU w/ no inhibitor [5]: 112%
- % bound RU w/ no inhibitor [6]: 114%
- % bound RU w/ no inhibitor [7]: 111%
- % bound RU w/ no inhibitor [8]: 110%
- % bound RU w/ no inhibitor [9]: 96%
- % bound RU w/ no inhibitor [10]: 94%
- % bound RU w/ no inhibitor [11]: 93%
- % bound RU w/ no inhibitor [12]: 97%
- % bound RU w/ no inhibitor [13]: 120%
- % bound RU w/ no inhibitor [14]: 122%
- % bound RU w/ no inhibitor [15]: 103%
- % bound RU w/ no inhibitor [16]: 100%
- % bound RU w/ no inhibitor [17]: 100%
B6: H4H10423P (antibody, human IgG4, V domains shown)
VH: QVQLQQSGPGLLKPSQTLSLTCAISGDSVSSNSAAWSWIRQSPSRGLEWLGRTYYRANWFNDYALSVKSRITINPVTSTNHFSLQLHSVTPEDTAVYYCAREGALGYYFDSWGQGTLVTVSS
VL: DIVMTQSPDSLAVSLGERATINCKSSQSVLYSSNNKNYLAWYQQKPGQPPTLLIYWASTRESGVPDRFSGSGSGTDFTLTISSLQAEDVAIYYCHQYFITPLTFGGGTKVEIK

- IC50, inhibition of 100 pM Activin A in A204/CAGAx12-Luc luciferase bioassay [1]: 2.9e-10 M
B7: H4H10437P2 (antibody, human IgG4, V domains shown)
VH: EVQLVESGGGLVQPGRSLRLSCAASGFTFDDYAMHWVRQAPGKGLEWVSGISWNSGSIGYADSVKGRFTISRDNAKNSLYLQMNSLRAEDTALYYCAKDIMGNWDYFYGMDVWGQGTTVTVSS
VL: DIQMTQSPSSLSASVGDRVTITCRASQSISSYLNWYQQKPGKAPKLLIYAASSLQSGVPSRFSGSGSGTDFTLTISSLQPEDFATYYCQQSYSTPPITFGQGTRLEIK
